We go through 14 molecules from patent US20220040297A1 (Chugai, published 2022).

Residue numbers refer to the chain shown, from its start.

Sequences and labels used below:
T1: biotin-labeled human CD154 (human, UniProt P29965 113-261, limits assumed, biotin-labeled)
T1 construct: also called biotinylated human CD154
T1 sequence (looked up): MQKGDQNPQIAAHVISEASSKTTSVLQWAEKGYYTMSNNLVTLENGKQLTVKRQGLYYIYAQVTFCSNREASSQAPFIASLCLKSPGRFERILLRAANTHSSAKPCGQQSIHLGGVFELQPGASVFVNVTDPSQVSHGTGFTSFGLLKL

B1: 154R5F08#3 (antibody, human IgG1, kappa, L234A L235A, N297A)
heavy: QVQLVESGGGLVQPGRSLRLSCAASGFTFSNAWMHWVRQAPGKGLEWVAQIKDKGNQYATYYAESVKGRYTISRDDSKNSIYLQMNSLKTEDTAVYYCRYVHYGTYFFALPAFGVDIWGQGTTVTVSSASTKGPSVFPLAPSSKSTSGGTAALGCLVKDYFPEPVTVSWNSGALTSGVHTFPAVLQSSGLYSLSSVVTVPSSSLGTQTYICNVNHKPSNTKVDKKVEPKSCDKTHTCPPCPAPEAAGGPSVFLFPPKPKDTLMISRTPEVTCVVVDVSHEDPEVKFNWYVDGVEVHNAKTKPREEQYASTYRVVSVLTVLHQDWLNGKEYKCKVSNKALPAPIEKTISKAKGQPREPQVYTLPPSRCELTKNQVSLSCAVKGFYPSDIAVEWESNGQPENNYKTTPPVLDSDGSFFLVSKLTVDKSRWQQGNVFSCSVMHEALHNHYTQKSLSLSPDYKDDDDK
chain: EPKSSDKTHTCPPCPAPELLGGPSVFLFPPKPKDTLMISRTPEVTCVVVDVSHEDPEVKFNWYVDGVEVHNAKTKPREEQYNSTYRVVSVLTVLHQDWLNGKEYKCKVSNKALPAPIEKTISKAKGQPREPQVCTLPPSRDELTKNQVSLWCLVKGFYPSDIAVEWESNGQPENNYKTTPPVLDSDGSFFLYSKLTVDKSRWQQGNVFSCSVMHEALHNRYTQKSLSLSP
light: DIVMTQSPLSLPVTPGEPASISCRSSQSLVHSNRNTYLHWYQQKPGQAPRLLIYKVSNRFSGVPDRFSGSGSGTDFTLKISRVEAEDVGVYYCGQGTQVPYTFGQGTKLEIKRTVAAPSVFIFPPSDEQLKSGTASVVCLLNNFYPREAKVQWKVDNALQSGNSQESVTEQDSKDSTYSLSSTLTLSKADYEKHKVYACEVTHQGLSSPVTKSFNRGEC
notes: One-arm antibody
B2: 154R5F08#1 (antibody, human IgG1, kappa, L234A L235A, N297A)
heavy: B1 heavy with Y70F
chain: B1 chain
light: B1 light
notes: One-arm antibody
B3: 154R5E11#3 (antibody, human IgG1, kappa, L234A L235A, N297A)
heavy: B1 heavy with K54R, Q57N, T60A, Y70F, T105S, L110S, P111F, A112Y, T123A
chain: B1 chain
light: B1 light
notes: One-arm antibody
B4: 154R5A02#1 (antibody, human IgG1, kappa, L234A L235A, N297A)
heavy: B1 heavy with K54R, Q57N, A59N, E64P, Y70F, T105S, A109S, L110G, P111S, A112S
chain: B1 chain
light: B1 light
notes: One-arm antibody
B5: 154R5A02#2 (antibody, human IgG1, kappa, L234A L235A, N297A)
heavy: QVQLVESGGGLVQPGRSLRLSCAASGFTFSNAWMHWVRQAPGKGLEWVAQIKDRGNNYNTYYAPSVKGRFTISRDDSKNSIYLQMNSLKTEDTAVYYCRYAHYGSYFFSGSSFGVDIWGQGTTVTVSSASTKGPSVFPLAPSSKSTSGGTAALGCLVKDYFPEPVTVSWNSGALTSGVHTFPAVLQSSGLYSLSSVVTVPSSSLGTQTYICNVNHKPSNTKVDKKVEPKSCDKTHTCPPCPAPEAAGGPSVFLFPPKPKDTLMISRTPEVTCVVVDVSHEDPEVKFNWYVDGVEVHNAKTKPREEQYASTYRVVSVLTVLHQDWLNGKEYKCKVSNKALPAPIEKTISKAKGQPREPQVYTLPPSRCELTKNQVSLSCAVKGFYPSDIAVEWESNGQPENNYKTTPPVLDSDGSFFLVSKLTVDKSRWQQGNVFSCSVMHEALHNHYTQKSLSLSPDYKDDDDK
chain: B1 chain
light: B1 light
notes: One-arm antibody
B6: 154R3A01#1 (antibody, human IgG1, kappa, L234A L235A, N297A)
heavy: QVQLVESGGGLVQPGRSLRLSCAASGFTFSNAWMHWVRQAPGKGLEWVAQIKDRVNQYANYYAESVKGRFTISRDDSKNSIYLQMNSLKTEDTAVYYCRYVHYGLTGYFSGQGGVDAWGQGTTVTVSSASTKGPSVFPLAPSSKSTSGGTAALGCLVKDYFPEPVTVSWNSGALTSGVHTFPAVLQSSGLYSLSSVVTVPSSSLGTQTYICNVNHKPSNTKVDKKVEPKSCDKTHTCPPCPAPEAAGGPSVFLFPPKPKDTLMISRTPEVTCVVVDVSHEDPEVKFNWYVDGVEVHNAKTKPREEQYASTYRVVSVLTVLHQDWLNGKEYKCKVSNKALPAPIEKTISKAKGQPREPQVYTLPPSRCELTKNQVSLSCAVKGFYPSDIAVEWESNGQPENNYKTTPPVLDSDGSFFLVSKLTVDKSRWQQGNVFSCSVMHEALHNHYTQKSLSLSPDYKDDDDK
chain: B1 chain
light: B1 light
notes: One-arm antibody
B7: 154R3A01#3 (antibody, human IgG1, kappa, L234A L235A, N297A)
heavy: B6 heavy with T28A
chain: B1 chain
light: B1 light
notes: One-arm antibody
B8: 154R3A01#4 (antibody, human IgG1, kappa, L234A L235A, N297A)
heavy: B6 heavy with S65C
chain: B1 chain
light: B1 light
notes: One-arm antibody
B9: 154R4B03#1 (antibody, human IgG1, kappa, L234A L235A, N297A)
heavy: B6 heavy with R54K, V55Q, N56S, E64P, G104Q, L105S, G107S, F109S, S110F, G111Y
chain: B1 chain
light: B1 light
notes: One-arm antibody
B10: 154R3B01#1 (antibody, human IgG1, kappa, L234A L235A, N297A)
heavy: QVQLVESGGGLVQPGRSLRLSCAASGFTFSSAWMHWVRQAPGKGLEWVAQIKDKQNQYNAYYAESVKGRFTISRDDSKNSIYLQMNSLKTEDTAVYYCRYVHYATSDGFLPYFGVDAWGQGTTVTVSSASTKGPSVFPLAPSSKSTSGGTAALGCLVKDYFPEPVTVSWNSGALTSGVHTFPAVLQSSGLYSLSSVVTVPSSSLGTQTYICNVNHKPSNTKVDKKVEPKSCDKTHTCPPCPAPEAAGGPSVFLFPPKPKDTLMISRTPEVTCVVVDVSHEDPEVKFNWYVDGVEVHNAKTKPREEQYASTYRVVSVLTVLHQDWLNGKEYKCKVSNKALPAPIEKTISKAKGQPREPQVYTLPPSRCELTKNQVSLSCAVKGFYPSDIAVEWESNGQPENNYKTTPPVLDSDGSFFLVSKLTVDKSRWQQGNVFSCSVMHEALHNHYTQKSLSLSPDYKDDDDK
chain: B1 chain
light: B1 light
notes: One-arm antibody
B11: 154R3F02#2 (antibody, human IgG1, kappa, L234A L235A, N297A)
heavy: QVQLVESGGGLVQPGRSLRLSCAASGFTFSNAWMHWVRQAPGKGLEWVAQIKDRASGYNNYYAESVKGRFTISRDDSKNSIYLQMNSLKTEDTAVYYCRYVHYAQSVSAFFQYGVDAWGQGTTVTVSSASTKGPSVFPLAPSSKSTSGGTAALGCLVKDYFPEPVTVSWNSGALTSGVHTFPAVLQSSGLYSLSSVVTVPSSSLGTQTYICNVNHKPSNTKVDKKVEPKSCDKTHTCPPCPAPEAAGGPSVFLFPPKPKDTLMISRTPEVTCVVVDVSHEDPEVKFNWYVDGVEVHNAKTKPREEQYASTYRVVSVLTVLHQDWLNGKEYKCKVSNKALPAPIEKTISKAKGQPREPQVYTLPPSRCELTKNQVSLSCAVKGFYPSDIAVEWESNGQPENNYKTTPPVLDSDGSFFLVSKLTVDKSRWQQGNVFSCSVMHEALHNHYTQKSLSLSPDYKDDDDK
chain: B1 chain
light: B1 light
notes: One-arm antibody
B12: 154R3A01#2 (antibody, human IgG1, kappa, L234A L235A, N297A)
heavy: B6 heavy with F70L
chain: B1 chain
light: B1 light
notes: One-arm antibody
B13: 154R4B03#4 (antibody, human IgG1, kappa, L234A L235A, N297A)
heavy: QVQLVESGGGLVQPGRSLRLSCAASGFTFSNAWMHWVRQAPGKGLEWVAQIKDKQSQYANYYAPSVKGRFTISRDDSKSSIYLQMNSLKTEDTAVYYCRYVHYQSTSYSFYQGGVDAWGQGTTVTVSSASTKGPSVFPLAPSSKSTSGGTAALGCLVKDYFPEPVTVSWNSGALTSGVHTFPAVLQSSGLYSLSSVVTVPSSSLGTQTYICNVNHKPSNTKVDKKVEPKSCDKTHTCPPCPAPEAAGGPSVFLFPPKPKDTLMISRTPEVTCVVVDVSHEDPEVKFNWYVDGVEVHNAKTKPREEQYASTYRVVSVLTVLHQDWLNGKEYKCKVSNKALPAPIEKTISKAKGQPREPQVYTLPPSRCELTKNQVSLSCAVKGFYPSDIAVEWESNGQPENNYKTTPPVLDSDGSFFLVSKLTVDKSRWQQGNVFSCSVMHEALHNHYTQKSLSLSPDYKDDDDK
chain: B1 chain
light: B1 light
notes: One-arm antibody
B14: 154R4F08#1 (antibody, human IgG1, kappa, L234A L235A, N297A)
heavy: B1 heavy with R16H, K54R, Q57N, T60A, Y70F, T105S, L110S, P111F, A112Y
chain: B1 chain
light: B1 light
notes: One-arm antibody

One test has as its target T1, biotin-labeled human CD154. In words: ECL competition: biotinylated CD154, CD3ε homodimer as competitor [2].
Protocol: (§1) Next, each obtained IgG was evaluated for its binding to CD3 and human CD154 at the same time by the competition method (electrochemiluminescence method (ECL method)).
(§2) A TBST solution containing 0.5% BSA (referred to as a blocking solution; the TBST solution was TBS (manufactured by Takara Bio Inc.) supplemented with 0.1% Tween 20) was added at 150 μL/well to streptavidin plate (MSD K.K.), and the plate was incubated at room temperature for 1 hour or longer. After removal of the blocking solution, each well was washed three times with 250 μL of a TBST solution. The antibody-antigen complex solution was added thereto at 50 L/well, and the plate was incubated at room temperature for 1 hour so that the biotinylated antigen-antibody-detection sulfo-tag antibody complex solution bound via the biotinylated antigen to the streptavidin plate. After removal of the antibody-antigen complex solution, each well was washed three times with a TBST solution, and a solution of 4× READ buffer (MSD K.K.) diluted 2-fold with water was added thereto at 150 μL/well, followed by the detection of the luminescence signal of the sulfo-tag using Sector Imager 2400 (MSD K.K.).
As to B1, the “Relative ECL reaction (to no antigen coating), CD3ε[+]” value was 10.

Regarding B2, the “Relative ECL reaction (to no antigen coating), CD3ε[+]” value was 13.

As for B3, the “Relative ECL reaction (to no antigen coating), CD3ε[+]” value turned out to be 1.

Turning to B4, the “Relative ECL reaction (to no antigen coating), CD3ε[+]” value was 10.

In the case of B5, the “Relative ECL reaction (to no antigen coating), CD3ε[+]” value came out at 106.

Another test concerns the target T1, biotin-labeled human CD154. In words: ECL competition: biotinylated CD154, CD3ε homodimer as competitor [1].
Protocol: as §1, §2
Turning to B6, the “Relative ECL reaction (to no antigen coating), CD3ε[+]” value amounted to 21.

For the molecule B7, the “Relative ECL reaction (to no antigen coating), CD3ε[+]” value turned out to be 19.

B8: the “Relative ECL reaction (to no antigen coating), CD3ε[+]” value stood at 4.

With B9, the “Relative ECL reaction (to no antigen coating), CD3ε[+]” value stood at 18.

Take B10: the “Relative ECL reaction (to no antigen coating), CD3ε[+]” value was found to be 18.

Turning to B11, the “Relative ECL reaction (to no antigen coating), CD3ε[+]” value is 16.

B12: the “Relative ECL reaction (to no antigen coating), CD3ε[+]” value was found to be 4.

As to B13, the “Relative ECL reaction (to no antigen coating), CD3ε[+]” value amounted to 20.

With B14, the “Relative ECL reaction (to no antigen coating), CD3ε[+]” value was 1.
